We go through six molecules from patent US20230181723A1 (UNIVERSITY OF MARYLAND COLLEGE PARK, published 2023).

Experiment [1] deals with T1, human TMEM129 (E3 ligase), endogenous in HeLa cells (human, UniProt A0AVI4 1-362).
T1 construct: whole, on cells; Endogenous protein in HeLa lysates; also called E3 ligase TMEM129
T1 sequence (looked up): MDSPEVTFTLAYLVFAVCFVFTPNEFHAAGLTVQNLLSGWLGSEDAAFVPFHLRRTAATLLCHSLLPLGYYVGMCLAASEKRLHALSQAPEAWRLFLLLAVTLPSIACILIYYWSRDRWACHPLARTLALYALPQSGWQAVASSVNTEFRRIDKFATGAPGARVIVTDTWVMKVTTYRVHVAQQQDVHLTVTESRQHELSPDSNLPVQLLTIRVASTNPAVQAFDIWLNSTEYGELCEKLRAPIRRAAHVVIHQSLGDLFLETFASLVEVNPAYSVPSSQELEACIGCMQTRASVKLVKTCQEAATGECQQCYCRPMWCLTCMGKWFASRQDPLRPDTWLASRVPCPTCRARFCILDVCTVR
Kind of experiment: immunoprecipitation with anti-TMEM129 from HeLa^FcRn cells transfected with Derlin-1.

For experiment [2], the target named is T2, FLAG-tagged human FcRn heavy chain (pcDNA-FLAGFcRn), expressed in HeLa^FcRn cells (human, UniProt P55899 24-365).
T2 construct: whole, on cells; it pairs with endogenous β2m in the cells; also called FcRn HC; WT FcRn
T2 sequence (P55899 other isoform, or with tags, fused parts or gaps): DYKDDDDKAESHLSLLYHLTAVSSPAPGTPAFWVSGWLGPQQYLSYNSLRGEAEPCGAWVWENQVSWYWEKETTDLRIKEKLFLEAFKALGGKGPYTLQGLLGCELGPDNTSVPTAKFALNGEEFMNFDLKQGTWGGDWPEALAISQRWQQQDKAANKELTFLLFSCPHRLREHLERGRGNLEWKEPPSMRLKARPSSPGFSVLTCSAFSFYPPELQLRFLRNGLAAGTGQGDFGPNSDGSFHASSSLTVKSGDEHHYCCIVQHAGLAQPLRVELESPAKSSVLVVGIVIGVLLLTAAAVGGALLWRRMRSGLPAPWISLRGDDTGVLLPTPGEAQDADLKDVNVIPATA
Briefly: probing for interactions in HeLa^FcRn cells transfected with HA-tagged HCMV cDNAs.

Experiment [3] has as its target T3, HA-tagged HCMV US11 (pEF6-US11, gene synthesised from HCMV AD169 DNA), expressed in HeLa cells (human cytomegalovirus (AD169 DNA as …, UniProt P09727 18-215)).
T3 construct: Full-length membrane glycoprotein expressed in transfected HeLa cells and tested in CHAPS lysates; also called HCMV glycoprotein US11; wild-type US11
Briefly: immunoprecipitation of US11 from HeLa^US11 cells, blot for Derlin-1.

Experiment [4] deals with T3, HA-tagged HCMV US11 (pEF6-US11, gene …). Kind of experiment: reciprocal co-immunoprecipitation (anti-HA, anti-FLAG) from HeLa^HFE+US11 lysates.
The target in experiment [5] is T2, FLAG-tagged human FcRn heavy chain …. Kind of experiment: reciprocal co-immunoprecipitation (anti-HA for US2, anti-FLAG for FcRn) from HeLa^FcRn+US2 lysates.

B1: Myc-tagged human Derlin-1 (pSectag2-Derlin-1) (other)
chain: SDIGDWFRSIPAITRYWFAATVAVPLVGKLGLISPAYLFLWPEAFLYRFQIWRPITATFYFPVGPGTGFLYLVNLYFLYQYSTRLETGAFDGRPADYLFMLLFNWICIVITGLAMDMQLLMIPLIMSVLYVWAQLNRDMIVSFWFGTRFKACYLPWVILGFNYIIGGSVINELIGNLVGHLYFFLMFRYPMDLGGRNFLSTPQFLYRWLPSRRGGVSGFGVPPASMRRAADQNGGGGRHNWGQGFRLGDQEQKLISEEDL
notes: whole, on cells; Transiently expressed in HeLa transfectants; tested in lysates; also called myc-tagged Derlin-1; Derlin-1 (WT)
As to B1, the binding result in experiment [1] is listed as “binds”.

B2: HA-tagged HCMV UL16, expressed in HeLa^FcRn cells (other)
chain: VDLGSKSSNSTCRLNVTELASIHPGETWTLHGMCISICYYENVTEDEIIGVAFTWQHNESVVDLWLYQNDTVIRNFSDITTNILQDGLKMRTVPVTKLYTSRMVTNLTVGRYDCLRCENGTTKIIERLYVRLGSLYPRPPGSGLAKHPSVSADEELSATLARDIVLVSAITLFFFLLALRIPQRLCQRLRIRLPHRYQRLRTED
notes: whole, on cells
On to B2, for which the binding result in experiment [2] was “binds”.

B3: Derlin-1 in HeLa^US11 or HeLa^US11Q192L stable cells (FIG. 16A; no transfection of Derlin-1 stated) (other)
chain: SDIGDWFRSIPAITRYWFAATVAVPLVGKLGLISPAYLFLWPEAFLYRFQIWRPITATFYFPVGPGTGFLYLVNLYFLYQYSTRLETGAFDGRPADYLFMLLFNWICIVITGLAMDMQLLMIPLIMSVLYVWAQLNRDMIVSFWFGTRFKACYLPWVILGFNYIIGGSVINELIGNLVGHLYFFLMFRYPMDLGGRNFLSTPQFLYRWLPSRRGGVSGFGVPPASMRRAADQNGGGGRHNWGQGFRLGDQ
notes: whole, on cells
As for B3, the binding result in experiment [3] is recorded as “binds”.

B4: FLAG-tagged human HFE (hemochromatosis protein), expressed in HeLa^HFE cells (other)
chain: DYKDDDDKRLLRSHSLHYLFMGASEQDLGLSLFEALGYVDDQLFVFYDHESRRVEPRTPWVSSRISSQMWLQLSQSLKGWDHMFTVDFWTIMENHNHSKESHTLQVILGCEMQEDNSTEGYWKYGYDGQDHLEFCPDTLDWRAAEPRAWPTKLEWERHKIRARQNRAYLERDCPAQLQQLLELGRGVLDQQVPPLVKVTHHVTSSVTTLRCRALNYYPQNITMKWLKDKQPMDAKEFEPKDVLPNGDGTYQGWITLAVPPGEEQRYTCQVEHPGLDQPLIVIWEPSPSGTLVIGVISGIAVFVVILFIGILFIILRKRQGSRGAMGHYVLAERE
notes: whole, on cells; Specificity control with an MHC class I-like structure; also called HEF; HeLa^HFE+US11
As to B4, in experiment [4], the binding result is listed as “no binding”.

B5: HA-tagged HCMV US2 (pEF6-US2), expressed in HeLa cells (other)
chain: MNNLWKAWVGLWTSMGPLIRLPDGITKAGEDALRPWKSTAKHPWFQIEDNRCYIDNGKLFARGSIVGNMSRFVFDPKADYGGVGENLYVHADDVEFVPGESLKWNVRNLDVMPIFETLALRLVLQGDVIWLRCVPELRVDYTSSAYMWNMQYGMVRKSYTHVAWTIVFYSINITLLVLFIVYVTVDCNLSMMWMRFFVCYPYDVPDYA
notes: whole, on cells; also called HeLa^US2; HeLa^FcRn+US2
Consider B5, for which the binding result in experiment [5] was “no binding”.

B6: HA-tagged HCMV US6, expressed in HeLa^FcRn cells (other)
chain: ERSSRDPKTLLSLSPRQQACVPRTKSHRPVCYNDTGDCTDADDSWKQLGEDFAHQCLQAAKKRPKTHKSRPNDRNLEGRLTCQRVRRLLPCDLDIHPSHRLLTLMNNCVCDGAVWNAFRLIERHGFFAVTLYLCCGITLLVVILALLCSITYESTGRGIRRCGS
notes: whole, on cells
For the molecule B6, in experiment [2], the binding result is on record as “binds”.
